Data: publication PMC7784771

How the values were obtained:
TDP-43 RRM1-RRM2 = TDP-43 RRM1-RRM2 (human, UniProt Q13148 101-265); assay: fluorescence polarization
TDP-43 RRM1 = TDP-43 RRM1 (human, UniProt Q13148 101-191); assay: fluorescence polarization
Sequence of TDP-43 RRM1 (Q13148 101-191): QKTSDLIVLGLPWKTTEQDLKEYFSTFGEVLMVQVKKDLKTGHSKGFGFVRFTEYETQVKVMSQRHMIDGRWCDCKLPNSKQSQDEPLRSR

Sequence of TDP-43 RRM1-RRM2 (Q13148 101-265): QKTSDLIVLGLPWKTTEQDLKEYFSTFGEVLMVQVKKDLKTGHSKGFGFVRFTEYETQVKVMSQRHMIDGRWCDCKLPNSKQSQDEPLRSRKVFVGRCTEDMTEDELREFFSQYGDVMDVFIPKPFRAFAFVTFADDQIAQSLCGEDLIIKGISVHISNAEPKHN

## UGUGUGUGUGUG (ssRNA) [(UG)6 RNA]
TDP-43 RRM1-RRM2
  Kd: 0.0095 ± 0.0013 µM
TDP-43 RRM1
  Kd: 0.0569 ± 0.0021 µM
